{
  "source": "paper PMC4726456",
  "target": "15-residue tubulin peptide",
  "data": [
    {"substance": "F105A TAT mutant (from UniProt Q5SQI0 1-421) (enzyme)", "values": [
      {"measurement": "acetylation activity kept with a 15-residue tubulin peptide (data not shown)", "value": 89, "unit": "% activity"}
    ]}
  ]
}
